Assay [1] addresses T1, rhEGFR (Homo sapiens, UniProt P00533).
T1 construct: purchased R&D Systems
Description: Competition test between phage and synthetic peptide on solid phase rhEGFR. The class given is binding. The following applies: for binding of the I-1010 phage to a rhEGFR (ratio of an input titer/output titer) on adding the peptide: peptide added at each concentration, up to 100 μM. As for the experimental part: A rhEGFR that is a target protein was added to a 96-well microplate to be 1 μg/well, and stood still at 4° C. overnight to be thus formed into a solid phase. A protein solution was removed, 300 μl of a blocking buffer was added and the mixture was incubated at 37° C. for 1 hour to thus block the wells. After removal of the blocking buffer, the wells were washed three times with 200 μl of 0.5% TBST washing solution, and finally 100 μl of 0.5% TBST was added thereto. […] A reaction only of the I-1010 phage without adding both of the peptides was employed as a control. […] In the reaction, the mixture was gently shaken at room temperature for 1 hour. The reaction solution was removed and the wells were washed with 200 μl of 0.5% TBST ten times. 100 μl of 0.2 M glycine-HCl (pH 2.2) was then added to the wells and stirred by pipetting, thereafter gently shaking at room temperature for 10 minutes. The eluate was collected to a microtube from the wells and added with 15 μl of 1M Tris-HCl (pH 9.1) to be neutralized and a target binding phage solution was thus obtained. The binding ability of the collected phage was examined by a measurement of a titer.

Assay [2] has as its system A-431 cells. Nature of the assay: In vitro imaging with FITC labeled peptide, confocal microscope, A-431 cells. The class given is cell-based, human. The note with it: 100 μM FITC labeled peptide, 37° C., 1 hour. As for the experimental part: A-431 cells were inoculated in a glass bottom dish to be 20×10^4 cells/dish and MCF7 cells were inoculated in a glass bottom dish to be 75×10^4 cells/dish, and cultured at 37° C. in the condition of CO2 for 24 hours. After culturing each kind of the cells for a specified time, EGF was added to have a concentration of 100 ng/mL and the mixture was cultured for 6 days. Thereafter, the culture solution in the dish was removed and washed with 1000 μL of a growth medium at 37° C. ten times. An aminocaproic acid linker was connected to an N terminal of a peptide and the peptide in which FITC was labeled in the opposite side of the connected linker (Pep055-F, Pep032-F ([…] (peptide irrelevant to binding to EGFR): SEQ ID No. 54)) (purity 80.6%, HPLC grade, AnyGen, Korea) was prepared to be 100 μM in a growth medium, and 1 mL of the medium was added and incubated at 37° C. for 1 hour. A staining fluid was removed and washed with 1 mL of a growth medium at 37° C. three times and thereto was finally added 1 mL of the medium. For observation, fluorescent observation was carried out by irradiating an exciting light laser with a wavelength of 488 nm using a confocal microscope (Leica SP2).

Where [3] appears, read: I-1010 phage 1×10^10 PFU, FIG. 6.

Where no end group is shown, it is not given here. The star is where a group is joined. FITC = O=C1OC2(c3ccc(O)cc3Oc3cc(O)ccc32)c2ccc(NC(=S)*)cc21; Ahx = NCCCCCC(=O)O

With “Pep056: synthetic peptide (SEQ ID No. 4) of the I-1012 phage displayed peptide (FHDWLPEVSPPD; I-1012)”, in assay [1] (FIG. 7), the “binding of the I-1012 phage to EGFR on adding the peptide” value was “inhibit”.
Consider “Pep057: synthetic peptide (SEQ ID No. 7) of the I-1015 phage displayed peptide (LHQSEWMYVDIH; I-1015)”, for which the “binding of the I-1015 phage to EGFR on adding the peptide” value in assay [1] (FIG. 8) is on record as “inhibit”.
With “Pep055-F: Pep055 with an aminocaproic acid linker at the N terminal, labeled with FITC ({FITC-Ahx}-WHLSDLWQNAWH)”, the “stainability of A-431 cells” value in assay [2] is “Staining of the cytoplasm of the A-431 cells was observed”.
Regarding “Pep055: synthetic peptide obtained by artificially synthesizing the I-1010 phage displayed peptide (SEQ ID No. 2) (WHLSDLWQNAWH; I-1010)”, in assay [1] (setting [3]), the “peptide concentration from which the ratio of an input titer/output titer of the I-1010 phage dropped” value is not below 1 µM and the “binding of the I-1010 phage to a rhEGFR (ratio of an input titer/output titer) on adding the peptide” value is “inhibited concentration-dependently”.
In the case of “GAASRTYLHELI (Random peptide) [Pep018, reference compound]”, the “binding of the I-1010 phage to a rhEGFR (ratio of an input titer/output titer) on adding the peptide” value in assay [1] (setting [3]) is listed as “maintained”.
In the case of “YLPLWRLSESHM ({FITC-Ahx}-YLPLWRLSESHM) [Pep032-F, reference compound]”, in assay [2], the “stainability of A-431 cells” value is recorded as “scarcely stained”.

Source of the values: patent US9822148B2, “EGFR-binding peptide” (HOYA CORPORATION, priority 2012, dated 2017).
